The record followed here is patent publication US20260001928A1 (CORTERIA PHARMACEUTICALS, priority 2022, published 2026).

*1 amine or outer side, *2 acyl side, *3 side chain or, on linkers, in order; H or OH if unused. Where no end group is shown, it is not given here. Side-chain parts run from the residue outwards. [ ]: non-standard residue; d: D form. The star is where a group is joined. C16 diacid = O=C(O)CCCCCCCCCCCCCCC(=O)*; γGlu = O=C(O)[C@H](CCC(=O)[*:2])N[*:1]; C14 diacid = O=C(O)CCCCCCCCCCCCC(=O)*; NMeI = CC[C@H](C)[C@H](NC)C(=O)O; Api = NC1(C(=O)O)CCNCC1; AEEA = NCCOCCOCC(=O)O; Aib = CC(C)(N)C(=O)O

Experiment [1] has as its target T1, CRF1R receptor (UniProt P34998 24-415, limits assumed).
T1 sequence (looked up): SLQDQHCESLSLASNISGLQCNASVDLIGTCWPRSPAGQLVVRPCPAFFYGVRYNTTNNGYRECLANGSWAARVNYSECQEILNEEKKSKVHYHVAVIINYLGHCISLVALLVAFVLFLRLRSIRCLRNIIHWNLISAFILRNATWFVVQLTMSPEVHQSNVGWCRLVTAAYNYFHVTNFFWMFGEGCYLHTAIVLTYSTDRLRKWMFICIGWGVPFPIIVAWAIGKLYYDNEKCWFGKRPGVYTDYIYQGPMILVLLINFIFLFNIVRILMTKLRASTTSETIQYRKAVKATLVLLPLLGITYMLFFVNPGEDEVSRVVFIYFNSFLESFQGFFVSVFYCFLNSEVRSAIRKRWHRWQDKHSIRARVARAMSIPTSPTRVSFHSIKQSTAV
Nature of the experiment: cell-based or functional assay.

Experiment [2] concerns the target human corticotropin-releasing factor 2a (CRF2a receptor) (human), Q13324. Nature of the experiment: cell-based or functional assay.

human corticotropin-releasing factor 2a (CRF2a receptor) (human), Q13324, sequence (Q13324 20-411): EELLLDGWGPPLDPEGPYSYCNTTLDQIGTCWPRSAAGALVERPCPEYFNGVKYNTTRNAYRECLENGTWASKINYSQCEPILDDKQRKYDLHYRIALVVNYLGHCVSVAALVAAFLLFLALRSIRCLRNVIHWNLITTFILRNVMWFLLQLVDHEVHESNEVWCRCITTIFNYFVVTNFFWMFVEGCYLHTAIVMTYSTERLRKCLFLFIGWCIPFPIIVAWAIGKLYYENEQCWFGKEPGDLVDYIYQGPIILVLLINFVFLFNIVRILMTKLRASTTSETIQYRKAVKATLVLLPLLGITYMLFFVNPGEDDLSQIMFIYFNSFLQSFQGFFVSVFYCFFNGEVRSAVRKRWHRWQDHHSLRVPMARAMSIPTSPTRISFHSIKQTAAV

B1: SEQ ID NO 173 (peptide)
peptide: Ac-IVLSLD[dV]PIKLK([AEEA-AEEA-γGlu-C14 diacid])KILLEQEKQK[Aib]QREQAETN[Api]QILAQV-NH2
SMILES: CC[C@H](C)[C@H](NC(C)=O)C(=O)N[C@H](C(=O)N[C@@H](CC(C)C)C(=O)N[C@@H](CO)C(=O)N[C@@H](CC(C)C)C(=O)N[C@@H](CC(=O)O)C(=O)N[C@@H](C(=O)N1CCC[C@H]1C(=O)N[C@H](C(=O)N[C@@H](CCCCN)C(=O)N[C@@H](CC(C)C)C(=O)N[C@@H](CCCCNC(=O)COCCOCCNC(=O)COCCOCCNC(=O)CC[C@H](NC(=O)CCCCCCCCCCCCC(=O)O)C(=O)O)C(=O)N[C@@H](CCCCN)C(=O)N[C@H](C(=O)N[C@@H](CC(C)C)C(=O)N[C@@H](CC(C)C)C(=O)N[C@@H](CCC(=O)O)C(=O)N[C@@H](CCC(N)=O)C(=O)N[C@@H](CCC(=O)O)C(=O)N[C@@H](CCCCN)C(=O)N[C@@H](CCC(N)=O)C(=O)N[C@@H](CCCCN)C(=O)NC(C)(C)C(=O)N[C@@H](CCC(N)=O)C(=O)N[C@@H](CCCNC(=N)N)C(=O)N[C@@H](CCC(=O)O)C(=O)N[C@@H](CCC(N)=O)C(=O)N[C@@H](C)C(=O)N[C@@H](CCC(=O)O)C(=O)N[C@H](C(=O)N[C@@H](CC(N)=O)C(=O)NC1(C(=O)N[C@@H](CCC(N)=O)C(=O)N[C@H](C(=O)N[C@@H](CC(C)C)C(=O)N[C@@H](C)C(=O)N[C@@H](CCC(N)=O)C(=O)N[C@H](C(N)=O)C(C)C)[C@@H](C)CC)CCNCC1)[C@@H](C)O)[C@@H](C)CC)[C@@H](C)CC)C(C)C)C(C)C
As to B1, in experiment [1], the “Emax (% I)” value was -1%. This molecule also returned an EC50 [nM] (cAMP) in experiment [2] of 28.1 nM.
As usually defined, the EC50 is the concentration giving half of the maximal effect. Take Ac-VLSLD[dV]PIKLK([γGlu-C16 diacid])QILLKQERQKKQREQAEKNKQILEQV-NH2 [SEQ ID NO 3]: in experiment [1], the “EC50” value was over 250 nM and the “Emax (% I)” value was 27%. This molecule came in with an EC50 [nM] (cAMP) in experiment [2] of 0.16 nM.

B2: SEQ ID NO 171 (peptide)
peptide: Ac-IVLSLD[dV]PIKLK([AEEA-AEEA-γGlu-C14 diacid])KILLEQEKQKKQREQAETN[Aib]QILAQV-NH2
SMILES: CC[C@H](C)[C@H](NC(C)=O)C(=O)N[C@H](C(=O)N[C@@H](CC(C)C)C(=O)N[C@@H](CO)C(=O)N[C@@H](CC(C)C)C(=O)N[C@@H](CC(=O)O)C(=O)N[C@@H](C(=O)N1CCC[C@H]1C(=O)N[C@H](C(=O)N[C@@H](CCCCN)C(=O)N[C@@H](CC(C)C)C(=O)N[C@@H](CCCCNC(=O)COCCOCCNC(=O)COCCOCCNC(=O)CC[C@H](NC(=O)CCCCCCCCCCCCC(=O)O)C(=O)O)C(=O)N[C@@H](CCCCN)C(=O)N[C@H](C(=O)N[C@@H](CC(C)C)C(=O)N[C@@H](CC(C)C)C(=O)N[C@@H](CCC(=O)O)C(=O)N[C@@H](CCC(N)=O)C(=O)N[C@@H](CCC(=O)O)C(=O)N[C@@H](CCCCN)C(=O)N[C@@H](CCC(N)=O)C(=O)N[C@@H](CCCCN)C(=O)N[C@@H](CCCCN)C(=O)N[C@@H](CCC(N)=O)C(=O)N[C@@H](CCCNC(=N)N)C(=O)N[C@@H](CCC(=O)O)C(=O)N[C@@H](CCC(N)=O)C(=O)N[C@@H](C)C(=O)N[C@@H](CCC(=O)O)C(=O)N[C@H](C(=O)N[C@@H](CC(N)=O)C(=O)NC(C)(C)C(=O)N[C@@H](CCC(N)=O)C(=O)N[C@H](C(=O)N[C@@H](CC(C)C)C(=O)N[C@@H](C)C(=O)N[C@@H](CCC(N)=O)C(=O)N[C@H](C(N)=O)C(C)C)[C@@H](C)CC)[C@@H](C)O)[C@@H](C)CC)[C@@H](C)CC)C(C)C)C(C)C
Take B2: the “Emax (% I)” value in experiment [1] worked out at 0%. This molecule also had an EC50 [nM] (cAMP) in experiment [2] of 5.79 nM.
On to Ac-IVLSLD[dV]PIKLK([AEEA-γGlu-γGlu-C14 diacid])KILLEQEKQKKQREQAETN[Aib]QILAQV-NH2 [SEQ ID NO 174], for which, in experiment [1], the “EC50” value is over 250 nM and the “Emax (% I)” value stood at 11%. The same molecule gave an EC50 [nM] (cAMP) in experiment [2] of 16.2 nM.

B3: SEQ ID NO 172 (peptide)
peptide: Ac-IVLSLD[dV]PIKLK([AEEA-AEEA-γGlu-C14 diacid])KILLEQEKQKKQREQAETN[Api]QILAQV-NH2
SMILES: CC[C@H](C)[C@H](NC(C)=O)C(=O)N[C@H](C(=O)N[C@@H](CC(C)C)C(=O)N[C@@H](CO)C(=O)N[C@@H](CC(C)C)C(=O)N[C@@H](CC(=O)O)C(=O)N[C@@H](C(=O)N1CCC[C@H]1C(=O)N[C@H](C(=O)N[C@@H](CCCCN)C(=O)N[C@@H](CC(C)C)C(=O)N[C@@H](CCCCNC(=O)COCCOCCNC(=O)COCCOCCNC(=O)CC[C@H](NC(=O)CCCCCCCCCCCCC(=O)O)C(=O)O)C(=O)N[C@@H](CCCCN)C(=O)N[C@H](C(=O)N[C@@H](CC(C)C)C(=O)N[C@@H](CC(C)C)C(=O)N[C@@H](CCC(=O)O)C(=O)N[C@@H](CCC(N)=O)C(=O)N[C@@H](CCC(=O)O)C(=O)N[C@@H](CCCCN)C(=O)N[C@@H](CCC(N)=O)C(=O)N[C@@H](CCCCN)C(=O)N[C@@H](CCCCN)C(=O)N[C@@H](CCC(N)=O)C(=O)N[C@@H](CCCNC(=N)N)C(=O)N[C@@H](CCC(=O)O)C(=O)N[C@@H](CCC(N)=O)C(=O)N[C@@H](C)C(=O)N[C@@H](CCC(=O)O)C(=O)N[C@H](C(=O)N[C@@H](CC(N)=O)C(=O)NC1(C(=O)N[C@@H](CCC(N)=O)C(=O)N[C@H](C(=O)N[C@@H](CC(C)C)C(=O)N[C@@H](C)C(=O)N[C@@H](CCC(N)=O)C(=O)N[C@H](C(N)=O)C(C)C)[C@@H](C)CC)CCNCC1)[C@@H](C)O)[C@@H](C)CC)[C@@H](C)CC)C(C)C)C(C)C
For B3, in experiment [1], the “Emax (% I)” value is -6%. The EC50 [nM] (cAMP) in experiment [2] was 16.1 nM.

B4: SEQ ID NO 176 (peptide)
peptide: [NMeI]VLSLD[dV]PIKLK([γGlu-C14 diacid])KILLEQEKQKAQREQAETN[Aib]QILAQV-NH2
modifications: N-terminus assumed
SMILES: CC[C@H](C)[C@H](NC)C(=O)N[C@H](C(=O)N[C@@H](CC(C)C)C(=O)N[C@@H](CO)C(=O)N[C@@H](CC(C)C)C(=O)N[C@@H](CC(=O)O)C(=O)N[C@@H](C(=O)N1CCC[C@H]1C(=O)N[C@H](C(=O)N[C@@H](CCCCN)C(=O)N[C@@H](CC(C)C)C(=O)N[C@@H](CCCCNC(=O)CC[C@H](NC(=O)CCCCCCCCCCCCC(=O)O)C(=O)O)C(=O)N[C@@H](CCCCN)C(=O)N[C@H](C(=O)N[C@@H](CC(C)C)C(=O)N[C@@H](CC(C)C)C(=O)N[C@@H](CCC(=O)O)C(=O)N[C@@H](CCC(N)=O)C(=O)N[C@@H](CCC(=O)O)C(=O)N[C@@H](CCCCN)C(=O)N[C@@H](CCC(N)=O)C(=O)N[C@@H](CCCCN)C(=O)N[C@@H](C)C(=O)N[C@@H](CCC(N)=O)C(=O)N[C@@H](CCCNC(=N)N)C(=O)N[C@@H](CCC(=O)O)C(=O)N[C@@H](CCC(N)=O)C(=O)N[C@@H](C)C(=O)N[C@@H](CCC(=O)O)C(=O)N[C@H](C(=O)N[C@@H](CC(N)=O)C(=O)NC(C)(C)C(=O)N[C@@H](CCC(N)=O)C(=O)N[C@H](C(=O)N[C@@H](CC(C)C)C(=O)N[C@@H](C)C(=O)N[C@@H](CCC(N)=O)C(=O)N[C@H](C(N)=O)C(C)C)[C@@H](C)CC)[C@@H](C)O)[C@@H](C)CC)[C@@H](C)CC)C(C)C)C(C)C
For B4, the “Emax (% I)” value in experiment [1] turned out to be 8%. In experiment [2], the EC50 [nM] (cAMP) amounted to 0.99 nM.

B5: SEQ ID NO 175 (peptide)
peptide: Ac-IVLSLD[dV]PIKLK([AEEA-AEEA-γGlu-γGlu-C14 diacid])KILLEQEKQKKQREQAETN[Api]QILAQV-NH2
SMILES: CC[C@H](C)[C@H](NC(C)=O)C(=O)N[C@H](C(=O)N[C@@H](CC(C)C)C(=O)N[C@@H](CO)C(=O)N[C@@H](CC(C)C)C(=O)N[C@@H](CC(=O)O)C(=O)N[C@@H](C(=O)N1CCC[C@H]1C(=O)N[C@H](C(=O)N[C@@H](CCCCN)C(=O)N[C@@H](CC(C)C)C(=O)N[C@@H](CCCCNC(=O)COCCOCCNC(=O)COCCOCCNC(=O)CC[C@H](NC(=O)CC[C@H](NC(=O)CCCCCCCCCCCCC(=O)O)C(=O)O)C(=O)O)C(=O)N[C@@H](CCCCN)C(=O)N[C@H](C(=O)N[C@@H](CC(C)C)C(=O)N[C@@H](CC(C)C)C(=O)N[C@@H](CCC(=O)O)C(=O)N[C@@H](CCC(N)=O)C(=O)N[C@@H](CCC(=O)O)C(=O)N[C@@H](CCCCN)C(=O)N[C@@H](CCC(N)=O)C(=O)N[C@@H](CCCCN)C(=O)N[C@@H](CCCCN)C(=O)N[C@@H](CCC(N)=O)C(=O)N[C@@H](CCCNC(=N)N)C(=O)N[C@@H](CCC(=O)O)C(=O)N[C@@H](CCC(N)=O)C(=O)N[C@@H](C)C(=O)N[C@@H](CCC(=O)O)C(=O)N[C@H](C(=O)N[C@@H](CC(N)=O)C(=O)NC1(C(=O)N[C@@H](CCC(N)=O)C(=O)N[C@H](C(=O)N[C@@H](CC(C)C)C(=O)N[C@@H](C)C(=O)N[C@@H](CCC(N)=O)C(=O)N[C@H](C(N)=O)C(C)C)[C@@H](C)CC)CCNCC1)[C@@H](C)O)[C@@H](C)CC)[C@@H](C)CC)C(C)C)C(C)C
With B5, the “Emax (% I)” value in experiment [1] is 5%. In experiment [2], this molecule returned an EC50 [nM] (cAMP) of 18.9 nM.
